From paper PMC12614216
pKd: −log10 of the molar value.

Key:
[1] = target: OrfL (OB-fold protein encoded by ICESt3 of Streptococcus thermophilus), purified, untagged (Streptococcus thermophilus (ICESt3)); assay: SEC-MALS; isolated OrfM or OrfL at 30 µM; Superdex 200 Increase 10/300 GL; 20 mM Tris-HCl pH 7.5, 150 mM NaCl; monomer and dimer
[2] = target: OrfL (OB-fold protein encoded by ICESt3 of Streptococcus thermophilus), purified, untagged (Streptococcus thermophilus (ICESt3)); assay: SEC-MALS; OrfL and OrfM mixed at 1:1 and 2:1 OrfL:OrfM molar ratios; Superdex 200 Increase 10/300 GL; 20 mM Tris-HCl pH 7.5, 150 mM NaCl
[3] = target: OrfL (OB-fold protein encoded by ICESt3 of Streptococcus thermophilus), purified, untagged (Streptococcus thermophilus (ICESt3)); assay: ITC; OrfM at 280 µM injected into OrfL at 28 µM; 298 K; 20 mM Tris-HCl pH 7.5, 300 mM NaCl; single binding site model
[4] = target: OrfL (OB-fold protein encoded by ICESt3 of Streptococcus thermophilus), purified, untagged (Streptococcus thermophilus (ICESt3)); assay: switchSENSE (fluorescence proximity sensing); OrfL covalently coupled to a 48-mer DNA nanolever on the chip; OrfM injected at 0.625 to 10 µM; PE40 buffer (10 mM NaP pH 7.4, 40 mM NaCl, 0.05% Tween 20); 25°C
[5] = target: OrfM (OB-fold protein encoded by ICESt3 of Streptococcus thermophilus), purified, untagged (Streptococcus thermophilus (ICESt3)); assay: SEC-MALS; isolated OrfM or OrfL at 30 µM; Superdex 200 Increase 10/300 GL; 20 mM Tris-HCl pH 7.5, 150 mM NaCl; monomer and dimer

OrfL (OB-fold protein encoded by ICESt3 of Streptococcus thermophilus), purified, untagged (natural protein)
stoichiometry N [1]: 2

OrfM (OB-fold protein encoded by ICESt3 of Streptococcus thermophilus), purified, untagged (natural protein)
fraction of the sample found as the complex (1:1 ratio) [2]: 92% | stoichiometry N [2]: 1 | Ka [3]: 7.1e+06 M⁻¹ | pKd [3]: 6.85 | dH [3]: -150 kJ/mol | stoichiometry N [3]: 0.87 | pKd [4]: 6.51 | koff [4]: 0.019 s⁻¹ | kon [4]: 62000 M⁻¹ s⁻¹ | fraction of the injected protein found as dimer [5]: 5% | stoichiometry N [5]: 2
